± gives the standard error. This sample holds only a part of the variants without activity.
B1: glmS ribozyme (parent)
chain: AUAAAAGCGCCAGAACUACAGAAAUGUAGUUGACGAGGAGGAGGUUUAUCGAAUUUUCGGCGGAUGCCUCCAAA

Columns and labels:
Settings in all cases: with glucosamine-6-phosphate
glucosamine-6-phosphate [1] = variants of: B1; assay: self-cleavage kobs at 40 uM GlcN6P; higher = faster cleavage; RNA array
Method in brief: (§1)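 A hybridised Cy3 probe tracked barcoded ribozyme variants, transcribed in situ by E. coli RNA polymerase on sequenced MiSeq chips, at 37 °C. The variants received 40 μM to 10 mM glucosamine-6-phosphate in HEPES/KCl/Mg(OAc)2 buffer. kobs came from decay fits and kcat and KM from weighted Michaelis–Menten fits.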

glucosamine-6-phosphate [2] = variants of: B1; assay: self-cleavage kobs at 160 uM GlcN6P; higher = faster cleavage; RNA array
Method in brief: as §1

glucosamine-6-phosphate [3] = variants of: B1; assay: self-cleavage kobs at 2500 uM GlcN6P; higher = faster cleavage; RNA array
Method in brief: as §1

glucosamine-6-phosphate [4] = variants of: B1; assay: self-cleavage kobs at 10000 uM GlcN6P; higher = faster cleavage; RNA array
Method in brief: as §1

glucosamine-6-phosphate [5] = variants of: B1; assay: self-cleavage kobs at 640 uM GlcN6P; higher = faster cleavage; RNA array
Method in brief: as §1

| Variant | self-cleavage kobs at 40 uM GlcN6P (glucosamine-6-phosphate [1]) [s⁻¹] | self-cleavage kobs at 160 uM GlcN6P (glucosamine-6-phosphate [2]) [s⁻¹] | self-cleavage kobs at 2500 uM GlcN6P (glucosamine-6-phosphate [3]) [s⁻¹] | self-cleavage kobs at 10000 uM GlcN6P (glucosamine-6-phosphate [4]) [s⁻¹] | self-cleavage kobs at 640 uM GlcN6P (glucosamine-6-phosphate [5]) [s⁻¹] |
| --- | --- | --- | --- | --- | --- |
| A36C U65C | < 1e-05 | < 1e-05 | < 1e-05 | < 1e-05 |  |
| A36C U65A | < 1e-05 |  | < 1e-05 |  | < 1e-05 |
| G35A G41A | < 1e-05 | < 1e-05 | < 1e-05 | < 1e-05 | < 1e-05 |
| C34A G37A A48U | < 1e-05 |  | < 1e-05 | < 1e-05 | < 1e-05 |
| G35U G43U U54A | < 1e-05 |  |  | < 1e-05 |  |
| A33U C34U G60C C68U | < 1e-05 |  | < 1e-05 |  |  |
| G35A A48C U55G | < 1e-05 |  |  |  |  |
| C34U G41A C50U C68U | < 1e-05 |  | < 1e-05 |  |  |
| A36C A48G | < 1e-05 |  |  | < 1e-05 |  |
| C34G C50A | < 1e-05 |  |  |  | < 1e-05 |
| C34G A53G U56G C67U | < 1e-05 |  |  |  |  |
| C34G A64G | < 1e-05 | < 1e-05 | < 1e-05 | < 1e-05 | < 1e-05 |
| G35U U47A C50G C70U | 0.000411 ± 0.00012 |  |  | 0.000429 ± 0.00017 |  |
| A33U C34U | < 1e-05 | < 1e-05 |  | < 1e-05 | < 1e-05 |
| G35A U56G | < 1e-05 |  |  | < 1e-05 | < 1e-05 |
| C34U A52G | < 1e-05 | < 1e-05 |  | < 1e-05 |  |
| C34U G40U | < 1e-05 | < 1e-05 | < 1e-05 | < 1e-05 |  |
| C34U G51U | < 1e-05 | < 1e-05 |  |  | < 1e-05 |
| G35C C61U | < 1e-05 | < 1e-05 | < 1e-05 | < 1e-05 | < 1e-05 |
| G35C U56G C58A U69A | < 1e-05 | < 1e-05 | < 1e-05 |  |  |
| G35U G38A | < 1e-05 | < 1e-05 |  | < 1e-05 |  |
| C34U U69A | 0.000116 ± 2.4e-05 |  |  |  | 0.00034 ± 0.00012 |
| C34U G41A C68A | < 1e-05 |  |  | < 1e-05 |  |

Source: the supplement of paper PMC7125110
